In patent US20020147129A1:
pIC50: −log10 of the molar value.

Target: embryonic chicken AT4 receptor (chicken)
Assay: competition for [125I]Ang IV binding, E13 chicken chorioallantoic membranes

Sequence of embryonic chicken AT4 receptor (chicken) (F1NNE7 entry or part of it): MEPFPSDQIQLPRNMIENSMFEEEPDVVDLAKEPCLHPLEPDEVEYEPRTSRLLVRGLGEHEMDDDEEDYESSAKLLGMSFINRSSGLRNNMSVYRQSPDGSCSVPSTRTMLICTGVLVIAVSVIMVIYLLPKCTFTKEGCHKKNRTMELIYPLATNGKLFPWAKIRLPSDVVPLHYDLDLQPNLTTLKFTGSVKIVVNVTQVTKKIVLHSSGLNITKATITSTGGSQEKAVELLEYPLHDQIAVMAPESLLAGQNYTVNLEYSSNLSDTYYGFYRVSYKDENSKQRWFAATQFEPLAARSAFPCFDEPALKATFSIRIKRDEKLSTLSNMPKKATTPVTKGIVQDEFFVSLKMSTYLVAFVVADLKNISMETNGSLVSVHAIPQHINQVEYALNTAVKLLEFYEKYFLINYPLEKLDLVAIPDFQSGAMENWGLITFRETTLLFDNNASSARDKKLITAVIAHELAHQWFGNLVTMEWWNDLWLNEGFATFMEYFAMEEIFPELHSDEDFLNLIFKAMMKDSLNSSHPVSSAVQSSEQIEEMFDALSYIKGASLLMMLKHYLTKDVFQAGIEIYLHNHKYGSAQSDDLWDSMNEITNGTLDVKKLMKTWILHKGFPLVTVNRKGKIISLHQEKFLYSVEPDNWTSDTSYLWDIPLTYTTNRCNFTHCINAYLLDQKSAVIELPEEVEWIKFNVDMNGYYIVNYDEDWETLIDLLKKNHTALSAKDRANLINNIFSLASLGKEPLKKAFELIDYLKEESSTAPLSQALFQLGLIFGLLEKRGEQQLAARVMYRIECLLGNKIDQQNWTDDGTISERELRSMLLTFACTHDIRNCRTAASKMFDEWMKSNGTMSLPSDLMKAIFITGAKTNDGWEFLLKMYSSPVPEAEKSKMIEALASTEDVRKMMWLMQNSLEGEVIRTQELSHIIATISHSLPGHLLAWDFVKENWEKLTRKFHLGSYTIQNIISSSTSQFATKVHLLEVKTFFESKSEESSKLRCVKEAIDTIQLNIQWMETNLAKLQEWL

Substance Nle^1-Y-I-amide (peptide) has a pIC50 of 5.66.
